Data: article PMC4265155, “A highly charged region in the middle domain of plant endoplasmic reticulum (ER)-localized heat-shock protein 90 is required for resistance to tunicamycin or high calcium-induced ER stresses” (Journal of Experimental Botany, 2014)

Substrate: Nc1ncnc2c1ncn2[C@@H]1O[C@H](COP(=O)(O)OP(=O)(O)OP(=O)(O)O)[C@@H](O)[C@H]1O
Test: NADH-coupled ATPase assay (pyruvate kinase / lactate dehydrogenase)
Type: biochemical, Arabidopsis thaliana
Conditions: geldanamycin-sensitive activity, 25 mM HEPES pH 7.5, 5 mM MgCl2, 400 mM KCl, 0.03% Tween 20, 10% glycerol
Source text: NADH-coupled ATPase assay (pyruvate kinase / lactate dehydrogenase) on HSP90.7 (AtHSP90.7; mature form R73–L823)

[1] = HSP90.7^Δ22 (D488–G509 deleted by SpeI cleavage and religation; a SpeI-site scar may remain)

Row | Protein | Km [1] | kcat [1] | kcat/Km [1] | Km | kcat | kcat/Km
1 | HSP90.7 (AtHSP90.7; mature form R73–L823) (Arabidopsis thaliana; DEL488-509) (protein, predicted mature form R73-L823, signal peptide removed, vector p11, E. coli BL21(DE3)-pRIL, His6-tag cut with TEV protease, size-exclusion purified) RSNAEKFEFQAEVSRLMDIIINSLYSNKDIFLRELISNASDALDKIRFLALTDKDVLGEGDTAKLEIQIKLDKAKKILSIRDRGIGMTKEDLIKNLGTIAKSGTSAFVEKMQSSGDLNLIGQFGVGFYSAYLVADYIEVISKHNDDSQYVWESKANGKFAVSEDTWNEPLGRGTEIRLHLRDEAGEYLEESKLKELVKRYSEFINFPISLWASKEVETEVPVEEDESADEETETTSTEEEKEEDAEEEDGEKKQKTKKVKETVYEWELLNDVKAIWLRSPKEVTEEEYTKFYHSLSKDFTDEKPMAWSHFNAEGDVEFKAVLYVPPKAPHDLYESYYNSNKANLKLYVRRVFISDEFDELLPKYLSFLKGLVDSDTLPLNVSREMLQQHSSLKTIKKKLIRKALDMIRKLAEEDPQYTKFWNEFGKSVKLGIIEDAANRNRLAKLLRFETTKSDGKLTSLDQYIKRMKKSQKDIFYITGSSKEQLEKSPFLERLIKKGYEVIFFTDPVDEYLMQYLMDYEDKKFQNVSKEGLKVGKDSKDKELKEAFKELTKWWKGNLASENVDDVKISNRLADTPCVVVTSKFGWSANMERIMQSQTLSDANKQAYMRGKRVLEINPRHPIIKELKDRIASDPEDESVKETAQLMYQTALIESGFILTDPKDFAARIYNSVKSGLNISPDAVADEEIEAAEEPETSEATETKSDDLAGGLNIEAEPVEQQEENTKDEL | 440 ± 110 µM | 0.039 ± 0.0025 s⁻¹ | 89 ± 27.8 M⁻¹ s⁻¹ | – | – | –
2 | HSP90.7 (AtHSP90.7; mature form R73–L823) (Arabidopsis thaliana) (protein, predicted mature form R73-L823, signal peptide removed, vector p11, E. coli BL21(DE3)-pRIL, His6-tag cut with TEV protease, size-exclusion purified) RSNAEKFEFQAEVSRLMDIIINSLYSNKDIFLRELISNASDALDKIRFLALTDKDVLGEGDTAKLEIQIKLDKAKKILSIRDRGIGMTKEDLIKNLGTIAKSGTSAFVEKMQSSGDLNLIGQFGVGFYSAYLVADYIEVISKHNDDSQYVWESKANGKFAVSEDTWNEPLGRGTEIRLHLRDEAGEYLEESKLKELVKRYSEFINFPISLWASKEVETEVPVEEDESADEETETTSTEEEKEEDAEEEDGEKKQKTKKVKETVYEWELLNDVKAIWLRSPKEVTEEEYTKFYHSLSKDFTDEKPMAWSHFNAEGDVEFKAVLYVPPKAPHDLYESYYNSNKANLKLYVRRVFISDEFDELLPKYLSFLKGLVDSDTLPLNVSREMLQQHSSLKTIKKKLIRKALDMIRKLAEEDPDEIHDDEKKDVEKSGENDEKKGQYTKFWNEFGKSVKLGIIEDAANRNRLAKLLRFETTKSDGKLTSLDQYIKRMKKSQKDIFYITGSSKEQLEKSPFLERLIKKGYEVIFFTDPVDEYLMQYLMDYEDKKFQNVSKEGLKVGKDSKDKELKEAFKELTKWWKGNLASENVDDVKISNRLADTPCVVVTSKFGWSANMERIMQSQTLSDANKQAYMRGKRVLEINPRHPIIKELKDRIASDPEDESVKETAQLMYQTALIESGFILTDPKDFAARIYNSVKSGLNISPDAVADEEIEAAEEPETSEATETKSDDLAGGLNIEAEPVEQQEENTKDEL | – | – | – | 770 ± 180 µM | 0.0377 ± 0.00283 s⁻¹ | 49 ± 15.2 M⁻¹ s⁻¹
